In the supplement of paper PMC7125110:
± gives the standard error. Fewer inactive variants are shown than the library holds.

B1: glmS ribozyme (parent)
chain: AUAAAAGCGCCAGAACUACAGAAAUGUAGUUGACGAGGAGGAGGUUUAUCGAAUUUUCGGCGGAUGCCUCCAAA

Key:
Details in all cases: with glucosamine-6-phosphate
glucosamine-6-phosphate [1] = variants of: B1; assay: self-cleavage kobs at 40 uM GlcN6P; higher = faster cleavage; RNA array
Summary of the method: (§1)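 Barcoded glmS ribozyme variants on sequenced MiSeq chips were transcribed in situ by E. coli RNA polymerase and tracked through a hybridised Cy3 probe at 37 °C. Glucosamine-6-phosphate (40 μM to 10 mM) in HEPES/KCl/Mg(OAc)2 buffer was flowed in, and tiles were imaged over ~14 h. Signals were normalised to baseline and to non-cleaving reference variants; per-tile medians were fit to one- or two-exponential decays to give kobs. kcat and KM came from weighted Michaelis–Menten fits across concentrations.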

glucosamine-6-phosphate [2] = variants of: B1; assay: self-cleavage kobs at 640 uM GlcN6P; higher = faster cleavage; RNA array
Summary of the method: as §1

glucosamine-6-phosphate [3] = variants of: B1; assay: self-cleavage kobs at 10000 uM GlcN6P; higher = faster cleavage; RNA array
Summary of the method: as §1

glucosamine-6-phosphate [4] = variants of: B1; assay: self-cleavage kobs at 2500 uM GlcN6P; higher = faster cleavage; RNA array
Summary of the method: as §1

glucosamine-6-phosphate [5] = variants of: B1; assay: self-cleavage kobs at 160 uM GlcN6P; higher = faster cleavage; RNA array
Summary of the method: as §1

Variant	self-cleavage kobs at 40 uM GlcN6P (glucosamine-6-phosphate [1]) [s⁻¹]	self-cleavage kobs at 640 uM GlcN6P (glucosamine-6-phosphate [2]) [s⁻¹]	self-cleavage kobs at 10000 uM GlcN6P (glucosamine-6-phosphate [3]) [s⁻¹]	self-cleavage kobs at 2500 uM GlcN6P (glucosamine-6-phosphate [4]) [s⁻¹]	self-cleavage kobs at 160 uM GlcN6P (glucosamine-6-phosphate [5]) [s⁻¹]
AUAAAAGCGCCAGAACUACAGAAAUGUAGUUGGCGAGGAGGAGGUUUAUUGAAUUUUCGGCGGAUGCCUCCAAA	< 1e-05	< 1e-05	< 1e-05		
AUAAAAGCGCUUGAACUACAGAAAUGUAGUUGACGAGGAGGAAGUUUAUCGAAUUUUCGGGGGAUGCCUCCAAA	< 1e-05		< 1e-05		
AUAAAAGCGCCAGCCCUACAGAAAUGUAGUUGACGAGGAGGAGGUUUAUCGAAUUUUCGGCUCAUGCCUCCAAA	< 1e-05				
AUAAAAGCGCCAGAACUACAGAAAUGUAGUUGACGAGGAGGAGGUCUAUCGAAUUUUCAGCGGAUGCCUCCAAA	< 1e-05	< 1e-05	4.71e-05 ± 1.4e-05		
AUAAACGCGCCAGAACUACAGAAAUGUAGUUGACGAGGAGUAGGUUUAUCGAAUUUUCGGCGGAAGCCUCCAAA	< 1e-05				
AUAAAAGCGCCAGAACUACAGAAAUGUAGUUGACGAUAAGGAGGUUUAUCGAAUUUUCGGCGGAUGCCUCCAAA	< 1e-05		< 1e-05		
AUAAACGCGCCAGAACUACAGAAAUGUAGUUGACGAGGAGGAGGUUUAGCGAAUUUUCGGCGGAUGCCUCCAAA	< 1e-05	< 1e-05			
AUAAAAGCGCCAGAACUACAGAAAUGUAGUUGACGAGGAGGAGGAUUAUCGAAUAUUCGGCGGAUGCCUCCAAA	0.00151 ± 0.00018	0.00993 ± 0.0023	0.09 ± 0.031	0.00931 ± 0.0037	
AUAAAAGCGCCAGAACUACAGAAAUGUAGUUGACGUGGAGGAGGUUUAUCGAAUGUUCGGCGGAUGCCUCCAAA	< 1e-05				
AUAAAAGCGCCAGAACUACAGAAAUGUAGUUGACGAGGAGGAGGUUUAUCGAAUUUUCGGCUGAGGCCUCCAAA	< 1e-05	< 1e-05	< 1e-05	< 1e-05	< 1e-05
AUAAAAGCGCCAGAACUACAGAAAUGUAGUUUACGAGGAGGAGGUUUAUGGAAUUUUCGGAGGAUGCCUCCAAA	0.000162 ± 2.5e-05		0.000319 ± 4.2e-05		
AUAAAAGCGCCAGAACUACAGAAAUGUAGUUGAGGAGGCGGAGGUGUAUCGAAUUUUCGGCGGAUGCCUCCAAA	< 1e-05		< 1e-05	< 1e-05	< 1e-05
AUAAAAGCGCCAGAACUACAGAAAUGUACUUUAAGAGGAGGAGGUUUAUGGAAUUUUCGGCGGAGGCGUCCAAA	8.78e-05 ± 3.1e-05	8.65e-05 ± 2.9e-05	4.42e-05 ± 1.7e-05	0.000304 ± 7.2e-05	0.000304 ± 5.8e-05
AUAAAACCGCCAGAACUACAGAAAUGUAGUUGUCGAGGAGAAGGUUUAUCGAAUUAUCGGCGGAUGCCUCUAAA	< 1e-05				
